In doi:10.1101/2022.11.11.516191:
One block for each binder: values may come before it.

Legend:
Experiment in all cases: SEC
Details in all cases: remark: other sources report otherwise
[1] = molecular target: T1, 14-3-3 β 130nY (human), P31946
T1 chain: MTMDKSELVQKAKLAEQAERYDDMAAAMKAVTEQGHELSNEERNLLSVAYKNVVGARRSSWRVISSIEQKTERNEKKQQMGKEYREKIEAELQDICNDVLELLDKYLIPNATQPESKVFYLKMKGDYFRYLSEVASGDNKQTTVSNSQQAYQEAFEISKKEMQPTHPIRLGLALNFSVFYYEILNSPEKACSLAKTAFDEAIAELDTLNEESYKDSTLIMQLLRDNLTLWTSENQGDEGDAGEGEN

[2] = molecular target: T2, 14-3-3 β wild-type (human), P31946
T2 chain: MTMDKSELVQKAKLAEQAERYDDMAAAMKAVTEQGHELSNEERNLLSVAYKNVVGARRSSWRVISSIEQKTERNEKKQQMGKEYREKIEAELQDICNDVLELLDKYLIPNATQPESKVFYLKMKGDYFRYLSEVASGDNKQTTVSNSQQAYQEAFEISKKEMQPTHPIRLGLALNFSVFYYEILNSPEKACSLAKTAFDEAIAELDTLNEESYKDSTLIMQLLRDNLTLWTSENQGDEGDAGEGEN

[3] = molecular target: T3, 14-3-3 β 213nY (human), P31946
T3 chain: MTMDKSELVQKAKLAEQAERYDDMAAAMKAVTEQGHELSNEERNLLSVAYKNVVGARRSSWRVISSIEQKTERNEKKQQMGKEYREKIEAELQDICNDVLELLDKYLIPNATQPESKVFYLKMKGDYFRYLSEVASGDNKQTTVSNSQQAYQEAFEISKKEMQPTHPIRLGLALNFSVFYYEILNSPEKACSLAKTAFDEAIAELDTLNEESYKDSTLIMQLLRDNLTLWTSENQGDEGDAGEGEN

- stoichiometry N [1]: 2
B1: 14-3-3 β 130nY, P31946 1-246 (natural protein)
chain: MTMDKSELVQKAKLAEQAERYDDMAAAMKAVTEQGHELSNEERNLLSVAYKNVVGARRSSWRVISSIEQKTERNEKKQQMGKEYREKIEAELQDICNDVLELLDKYLIPNATQPESKVFYLKMKGDYFRYLSEVASGDNKQTTVSNSQQAYQEAFEISKKEMQPTHPIRLGLALNFSVFYYEILNSPEKACSLAKTAFDEAIAELDTLNEESYKDSTLIMQLLRDNLTLWTSENQGDEGDAGEGEN
modifications: here or on the partner: 3-nitro-tyrosine at 130 (β-isoform numbering); 3-nitro-tyrosine at 130 (β-isoform numbering)

- stoichiometry N [2]: 2
B2: 14-3-3 β wild-type, P31946 1-246 (natural protein)
chain: MTMDKSELVQKAKLAEQAERYDDMAAAMKAVTEQGHELSNEERNLLSVAYKNVVGARRSSWRVISSIEQKTERNEKKQQMGKEYREKIEAELQDICNDVLELLDKYLIPNATQPESKVFYLKMKGDYFRYLSEVASGDNKQTTVSNSQQAYQEAFEISKKEMQPTHPIRLGLALNFSVFYYEILNSPEKACSLAKTAFDEAIAELDTLNEESYKDSTLIMQLLRDNLTLWTSENQGDEGDAGEGEN

- stoichiometry N [3]: 2
B3: 14-3-3 β 213nY, P31946 1-246 (natural protein)
chain: MTMDKSELVQKAKLAEQAERYDDMAAAMKAVTEQGHELSNEERNLLSVAYKNVVGARRSSWRVISSIEQKTERNEKKQQMGKEYREKIEAELQDICNDVLELLDKYLIPNATQPESKVFYLKMKGDYFRYLSEVASGDNKQTTVSNSQQAYQEAFEISKKEMQPTHPIRLGLALNFSVFYYEILNSPEKACSLAKTAFDEAIAELDTLNEESYKDSTLIMQLLRDNLTLWTSENQGDEGDAGEGEN
modifications: here or on the partner: 3-nitro-tyrosine at 213 (β-isoform numbering); 3-nitro-tyrosine at 213 (β-isoform numbering)
